Source: patent publication US7025971

Tests used:
[1] = molecular target: PapD (wild type) (E. coli) (UniProt P15319); assay: cell-based or functional assay
[2] = molecular target: PapD (wild type) (E. coli) (UniProt P15319); assay: soluble inhibition ELISA: 25-fold molar excess of peptide, 100 pmol/well PapD, G1′-19′WT-coated wells

PapD (wild type) (E. coli), sequence (P15319 22-239 limits assumed): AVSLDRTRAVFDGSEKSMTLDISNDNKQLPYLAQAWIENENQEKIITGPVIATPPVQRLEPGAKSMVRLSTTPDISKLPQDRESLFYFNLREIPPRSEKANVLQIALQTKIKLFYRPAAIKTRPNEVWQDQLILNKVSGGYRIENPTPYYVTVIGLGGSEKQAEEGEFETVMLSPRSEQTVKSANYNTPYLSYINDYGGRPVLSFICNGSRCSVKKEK

| Substance | HA titer [1] | Piliation percentage [1] [%] | decrease of HA titer [1] [fold] | % Inhibition [2] [%] |
| --- | --- | --- | --- | --- |
| MBP/G1′-140′ (from UniProt P0AEX9 27-392) | 4 | 10 | 30 | – |
| MBP/G1′-81′ (from UniProt P0AEX9 27-392) | 82 | 40 | – | – |
| G2′-21′amide (peptide) | – | – | – | 0 |
